Results taken from US20180162928A1 (Janssen / Centocor, published 2018).
Changes are numbered by the printed parent chain.

B1: ISOP121GR5P1F7 (designed binder, not shown: small tags and cut ends)
chain: LPAPKNLVVSRVTEDSARLSWTAPDAAFDSFGINYVERASEGEAIDLGVPGSERSYDLTGLKPGTEYFVKIFGVKGGIPSVPLWAWFTT
notes: FN3 domain; E. coli lysate in the ELISA
B2: ISOP121BR5P1D10 (designed binder, not shown: small tags and cut ends)
chain: LPAPKNLVVSRVTEDSARLSWGKKSHFFDSFLIQYQESEKVGEAIVLTVPGSERSYDLTGLKPGTEYTVSIYGVYTRGQCEWESNQLSAIFFTT
notes: as for B1
B3: ISOP121AR5P1C5 (designed binder, not shown: small tags and cut ends)
chain: LPAPKNLVVSRVTEDSARLSWKRSDDEWFDSFLIQYQESEKVGEAIILTVPGSERSYDLTGLKPGTEYTVSIYGVYQRAALWFSNPLSAIFTT
notes: as for B1
B4: ISOP194AR9P1E3 (designed binder, not shown: small tags and cut ends)
chain: B3 chain with I47V
notes: as for B1
B5: ISOP121AR5P1A10 (designed binder, not shown: small tags and cut ends)
chain: LPAPKNLVVSRVTEDSARLSWPDWSNSEYFDSFLIQYQESEKVGEAIVLTVPGSERSYDLTGLKPGTEYTVSIYGVYARHRLFVSNPLSAIFTT
notes: as for B1
B6: ISOP194AR9P1G7 (designed binder, not shown: small tags and cut ends)
chain: B5 chain with P22G, W24D, S25F, A78T, H80A, R81V, L82V, V84T
notes: as for B1
B7: ISOP194HR9P1D11 (designed binder, not shown: small tags and cut ends)
chain: LPAPKNLVVSRVTEDSARLSWTAPDAAFDSFSILYGELIGDGEAIVLTVPGSERSYDLTGLKPGTEYTVYIFGVKGGRYSRPLSAIFTT
notes: as for B1
B8: ISOP194HR9P1B2 (designed binder, not shown: small tags and cut ends)
chain: B7 chain with T65S
notes: as for B1
B9: ISOP121FR5P1H9 (designed binder, not shown: small tags and cut ends)
chain: B7 chain with L38T, I39A, G40P, D41I, T68V, F72Q, R78N, R81Q
notes: as for B1
B10: ISOP121HR5P1F2 (designed binder, not shown: small tags and cut ends)
chain: B7 chain with S32T, L38T, I39Y, G40S, D41G, T68V, R78K, Y79W
notes: as for B1
B11: ISOP121GR5P1G7 (designed binder, not shown: small tags and cut ends)
chain: LPAPKNLVVSRVTEDSARLSWTAPDAAFDSFHIRYHEYDKNGEAIQLYVPGSERSYDLTGLKPGTEYGVYIHGVKGGGRSKPLWAHFTT
notes: as for B1
B12: ISOP194GR9P1E9 (designed binder, not shown: small tags and cut ends)
chain: B11 chain with Y70F, H72W, G78L, R79K, H86W
notes: as for B1
B13: ISOP121BR5P1B5 (designed binder, not shown: small tags and cut ends)
chain: LPAPKNLVVSRVTEDSARLSWRKQEQYFDSFLIQYQESEKVGEAIVLTVPGSERSYDLTGLKPGTEYTVSIYGVYQRGYHNWFSNPLSAIFTT
notes: as for B1
B14: ISOP121BR5P1A2 (designed binder, not shown: small tags and cut ends)
chain: B13 chain with K23F, Q24S, E25Q, Q26E, Y27W, Q76A, Y79I, N81K, F83L
notes: as for B1
B15: ISOP121BR5P1E7 (designed binder, not shown: small tags and cut ends)
chain: B13 chain with Y75K, Q76K, R77W, G78P, Y79S, H80T, N81T, W82T, F83T
notes: as for B1
B16: ISOP121BR5P1C6 (designed binder, not shown: small tags and cut ends)
chain: B13 chain with Q76S, G78P, Y79K, H80A, N81E, W82F, F83T
notes: as for B1
B17: ISOP121AR5P1A8 (designed binder, not shown: small tags and cut ends)
chain: LPAPKNLVVSRVTEDSARLSWGLEWAYQFFDSFLIQYQESEKVGEAIVLTVPGSERSYDLTGLKPGTEYTVSIYGVYLRAIEFYSNPLSAIFTT
notes: as for B1
B18: ISOP121AR5P1H1 (designed binder, not shown: small tags and cut ends)
chain: LPAPKNLVVSRVTEDSARLSWKQATKFVFDSFLIQYQESEKVGEAIVLTVPGSERSYDLTGLKPGTEYTVSIYGVPDWFVLESNPLSAIFTT
notes: as for B1
B19: ISOP121AR5P1E11 (designed binder, not shown: small tags and cut ends)
chain: B18 chain with K22S, Q23V, A24Q, K26S, D77L, F79H, V80G, L81F, E82D
notes: as for B1
B20: ISOP121GR5P1D7 (designed binder, not shown: small tags and cut ends)
chain: LPAPKNLVVSRVTEDSARLSWTAPDAAFDSFKIWYQERSIVGEAIFLLVPGSERSYDLTGLKPGTEYIVQIFGVKGGPYSNPLWAPFTT
notes: as for B1
B21: ISOP121AR5P1H2 (designed binder, not shown: small tags and cut ends)
chain: LPAPKNLVVSRVTEDSARLSWVIDEFIPLFDSFLIQYQESEKVGEAIVLTVPGSERSYDLTGLKPGTEYTVSIYGVLAKNIGISNPLSAIFTT
notes: as for B1
B22: ISOP121AR5P1B8 (designed binder, not shown: small tags and cut ends)
chain: LPAPKNLVISRVTEDSARLSWDKRTQFAFDSFLIQYQESEKVGEAIVLTVPGSERSYDLTGLKPGTEYTVSIYGVPTWSGRTQSNPLSAIFTT
notes: as for B1
B23: ISOP121BR5P1G3 (designed binder, not shown: small tags and cut ends)
chain: LPAPKNLVVSRVTEDSARLSWKQRTSFHFDSFLIQYQESEKVGEAIVLTVPGSERSYDLTGLKPGTEYTVSIYGVPFWQQWQPESNPLSAIFTT
notes: as for B1
B24: ISOP121BR5P1D7 (designed binder, not shown: small tags and cut ends)
chain: LPAPKNLGCFSRYRRLSRLSWETPYPSLSNFDSFLIQYQESEKVGEAIVLTVPGSERSYDLTGLKPGTEYTVSIYGVLKLSAAWWPSNPLSAIFTT
notes: as for B1
B25: ISOP121GR5P1D2 (designed binder, not shown: small tags and cut ends)
chain: LPAPKNLVVSRVTEDSARLSWTAPDAAFDSFHILYQERAQSGEAIGLVVPGSERSYDLTGLKPATEYSVQIFGVKGGKLSNPLWAWFTT
notes: as for B1
B26: ISOP121GR5P1F10 (designed binder, not shown: small tags and cut ends)
chain: LPAPKNLVVSRVTEDSARLSWTAPDAAFDSFFIDYVERATVGEAIALNVPGSKRSYALTGLKPGTEYFVKIRGVKGGLKSKPLWAWFTT
notes: as for B1
B27: ISOP121BR5P1C5 (designed binder, not shown: small tags and cut ends)
chain: LPAPKNLVVSRVTEDSARLSWFRLRIVQTFDSFLIQYQESEKVGEAIVLTVPGSERSYDLTGLKPGTEYTVSIYGVITVVELLQQSNPLSAIFTT
notes: as for B1
B28: ISOP121BR5P1F10 (designed binder, not shown: small tags and cut ends)
chain: LPAPKNLVVSRVTEDSARLSWPLNLEYFDSFLIQYQESEKVGEAIVLTVPGSERSYDLTGLKPGTEYTVSIYGVYGRYGGPFVSNPLSAIFTT
notes: as for B1
B29: ISOP121FR5P1H8 (designed binder, not shown: small tags and cut ends)
chain: LPAPKNLVVSRVTEDSARLSWTAPDAAFDSFVIYYSEQHFYGEAIVLTVPGSERSYDLTGLKPGTEYVVKIYGVKGGETSKPLSAIFTT
notes: as for B1

Molecular target: human serum albumin (human) (UniProt P02768)
Experiment: ELISA, lysate on plate-bound antigen

human serum albumin (human), sequence (P02768 25-609 limits assumed): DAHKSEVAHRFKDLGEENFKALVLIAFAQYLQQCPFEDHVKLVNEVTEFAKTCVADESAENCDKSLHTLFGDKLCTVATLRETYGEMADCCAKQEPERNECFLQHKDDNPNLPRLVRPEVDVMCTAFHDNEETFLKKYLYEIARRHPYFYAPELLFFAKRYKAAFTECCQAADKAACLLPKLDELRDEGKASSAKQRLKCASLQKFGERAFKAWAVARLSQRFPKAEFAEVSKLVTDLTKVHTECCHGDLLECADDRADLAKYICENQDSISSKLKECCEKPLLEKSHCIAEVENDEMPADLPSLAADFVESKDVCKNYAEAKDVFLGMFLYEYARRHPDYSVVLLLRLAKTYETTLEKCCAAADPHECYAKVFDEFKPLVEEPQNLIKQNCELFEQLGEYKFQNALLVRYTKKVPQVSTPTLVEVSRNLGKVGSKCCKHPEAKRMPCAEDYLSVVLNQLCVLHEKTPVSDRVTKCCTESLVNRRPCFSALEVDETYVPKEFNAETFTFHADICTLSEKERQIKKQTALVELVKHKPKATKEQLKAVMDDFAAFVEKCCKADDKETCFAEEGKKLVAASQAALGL

Binder | ELISA HSA (RSU)
B1 | 720
B2 | 880
B3 | 560
B4 | 800
B5 | 560
B6 | 560
B7 | 1680
B8 | 1840
B9 | 880
B10 | 640
B11 | 800
B12 | 1200
B13 | 400
B14 | 800
B15 | 640
B16 | 720
B17 | 1040
B18 | 880
B19 | 720
B20 | 720
B21 | 1120
B22 | 560
B23 | 640
B24 | 720
B25 | 640
B26 | 640
B27 | 720
B28 | 720
B29 | 640

Molecular target: unrelated Fc-fused recombinant protein
Experiment: ELISA, lysate on plate-bound antigen

Binder | ELISA Fc Control (RSU)
B1 | 640
B2 | 480
B3 | 640
B4 | 1120
B5 | 1120
B6 | 1280
B7 | 480
B8 | 400
B9 | 720
B10 | 480
B11 | 800
B12 | 720
B13 | 720
B14 | 720
B15 | 800
B16 | 720
B17 | 560
B18 | 880
B19 | 720
B20 | 720
B21 | 880
B22 | 640
B23 | 560
B24 | 800
B25 | 720
B26 | 640
B27 | 400
B28 | 560
B29 | 560

Molecular target: T1, recombinant biotinylated PD-L1 (rhPD-L1/Fc Chimera, R&D Systems 156-B7) (human, UniProt Q9NZQ7 19-238, biotinylated (sites not given))
T1 construct: Bought Fc chimera; also called human PD-L1
Experiment: ELISA, lysate on plate-bound antigen
Procedure: Streptavidin-coated Maxisorp plates (Nunc catalog 436110) were blocked for 1 h in Starting Block T20 (Pierce) and then coated with biotinylated PD-L1 (using same antigen as in panning) or negative controls (an unrelated Fc-fused recombinant protein and human serum albumin) for 1 h. Plates were rinsed with TBST and diluted lysate was applied to plates for 1 h. Following additional rinses, wells were treated with HRP-conjugated anti-FN3 domain antibody (PAB25) for 1 h and then assayed with POD (Roche catalog 11582950001).

T1 sequence (Q9NZQ7 19-238, change not shown): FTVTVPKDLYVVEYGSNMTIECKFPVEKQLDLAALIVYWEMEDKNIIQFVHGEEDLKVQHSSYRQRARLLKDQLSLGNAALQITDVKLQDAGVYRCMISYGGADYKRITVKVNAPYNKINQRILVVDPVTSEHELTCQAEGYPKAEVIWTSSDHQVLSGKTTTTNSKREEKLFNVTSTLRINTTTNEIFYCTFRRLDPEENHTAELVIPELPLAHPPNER

Binder | ELISA PD-L1 Fc (RSU)
B1 | 697000
B2 | 1.54e+06
B3 | 732000
B4 | 4.57e+06
B5 | 789000
B6 | 1.59e+07
B7 | 6.62e+06
B8 | 5.66e+06
B9 | 1.2e+06
B10 | 907000
B11 | 368000
B12 | 2.82e+06
B13 | 1.48e+06
B14 | 743000
B15 | 412000
B16 | 13400
B17 | 516000
B18 | 1.48e+06
B19 | 1.84e+06
B20 | 792000
B21 | 927000
B22 | 592000
B23 | 771000
B24 | 12800
B25 | 513000
B26 | 577000
B27 | 11700
B28 | 1.42e+06
B29 | 431000
